How the values were obtained:
[1] = Reaction of two AGT variants in one sample with CPTG and BG-Bt; assay type: biochemical
Protocol: FIG. 2: Western blot of the reaction of wild type hAGT (GST-hAGT fusion protein) and AGTM with the two substrates N^9-cyclopentyl-O^6-bromophenyl-guanine (CPTG) and biotinylated O^6-benzylguanine (BG-Bt, substance 3a of Juillerat et al. 2003) as described in Example 7. BG-Bt is present in all samples at 5 μM. Detection with neutravidin-peroxidase conjugate and luminescent peroxidase substrate detecting any AGT reacted with BG-Bt. Even under simultaneous incubation with identical concentrations of CPTG and BG-Bt only about 5% of GST-hAGT reacts with substrate BG-Bt.
Within the experiment two tags with different size for the two AGT proteins are used: The His-tagged AGTM (˜20 kDa) and GST-hAGT (cloned and prepared as described in Example 1, but starting with the wild type hAGT gene, ˜48 kDa) are diluted to 0.2 μM and 1.2 μM final concentration, respectively, in reaction buffer containing 50 mM HEPES, 1 mM DTT, 200 mg/mL BSA (pH 7.3). The sample is incubated with a mixture of substrates N^9-cyclopentyl-O^6-bromophenyl-guanine (CPTG; 0, 5 and 10 μM final concentrations) and biotinylated O^6-benzylguanine (BG-Bt, 5 μM final concentration) for 30 minutes. The reaction is quenched by addition of SDS-Laemmli buffer and subjected to Western blotting analysis (Example 1). As the two AGT variants have different masses, the two proteins can be separated on an acrylamide gel and analyzed independently. […] At the same concentration (both substrates at 5 μM final concentration), 95% of GST-hAGT reacts with CPTG, versus only 5% of His-tagged AGTM.

[2] = BG-Cy3 activity assay (reaction rate of AGT mutants); assay type: biochemical
Protocol: Reactivity against DNA-based substrates measured with a BG-Cy3 assay: BG-Cy3 is prepared by reacting the previously described O^6-(4-aminomethyl-benzyl)guanine (Keppler et al., NatureBiotechnol. 21:86-89, 2003) with the commercially available N-hydroxysuccinimide ester of Cy3, (Cy3-NHS, Amersham). The coupling reaction is performed at ambient temperature in N,N-dimethylformamide in the presence of 1 eq. of triethylamine. The BG-Cy3 conjugate is purified by reversed-phase HPLC on a C18-column by using linear gradients from 0.1% trifluoroacetic acid to acetonitrile. After solvent evaporation BG-Cy3 is dissolved in dimethyl sulfoxide and stored at −20° C. For measuring the reactivity with DNA-based substrates, a reaction mixture containing different concentrations (0 to 5 µM) of oligonucleotide SEQ ID NO:2 (modified in position 14), GST-AGT fusion protein at 0.2 µM and BG-Cy3 at […] in reaction buffer (50 mM HEPES, pH 7.2, 1 mM DTT, 200 mg/ml BSA) is incubated in microtiterplates. Fluorescence of the Cy3 derivative (excitation 519 nm, emission at 572 nm) is measured on a Spectramax Gemini plate reader (Molecular Devices).
The amplified products are cloned in fusion to the g3 gene of filamentous phage in the vector pAK100 via SfiI restriction sites. The resulting gene libraries are used for phage display as described under Example 4. The mutants of the libraries are selected with 5 to 50 nM of BG-Bt for 10 min. Selected mutants are subcloned into pGEX using the primers SEQ ID NO:3 and SEQ ID NO:13. The reaction rate of mutant AGTs is determined as described in Example 6, Reactivity against DNA-based substrates (BG-Cy3 assay).
For the activity assay purified GST fusion proteins were used for mutants marked with “p.” (prepared as described under Example 1); periplasmic extracts were used for mutants marked with “x.” (prepared as described under Example 2).

[3] = Stability after reaction with BG-FL; assay type: physicochemical; conditions: over 7 days
Protocol: Stability before reaction is determined for the mutant AGT or for a mutant AGT fusion protein by incubating purified samples in buffered aqueous solution for up to two weeks at 4° C. and up to six months at −20° C. At several time points, aliquots are taken and concentration of reactive AGT is estimated as described by Juillerat et al., Chem Biol 10:313-317, 2003. Stability for wild type AGT and the AGT mutant after reaction with a labelled substrate and after subsequent separation from unreacted substrate is determined by quantifying the concentration of the label in the soluble fraction over up to two weeks at 4° C. and up to three months at −20° C.
Stability after reaction: The vector pBAD/H is A (Invitrogen) is modified by cloning synthetic oligonucleotides (SEQ ID NO:29 and SEQ ID NO:30) between the NcoI and HindIII sites to include a 12×His-tag and SbfI and AscI cloning sites. The gene of AGTM is amplified with primers SEQ ID NO:31 and SEQ ID NO:32 and cloned between the SbfI/AscI sites into this vector. Wild type AGT and mutant AGT (Lys125Ala, Ala127Thr, Arg128Ala, Asn157Gly, Ser159Glu) are amplified with primers SEQ ID NO:31 and SEQ ID NO:33 and cloned into this vector. Protein expression is carried out in E. coli strain Top 10. An exponentially growing culture is induced with 0.2% arabinose, and the expression is carried out for 16 hours at 28° C. The cells are lysed by adding buffer to 10 ml/g containing 0.5 M NaCl, 80 mM imidazole, 1% Triton, 250 µM PMSF, 1 mM […]-mercaptoethanol, 5 mg/ml lysozyme, 20 µg/ml DNase and stirring for 45 min. […]
The AGT proteins at 10 µM) are quantitatively reacted with fluorescein-modified O^6-benzyl-guanine (substance 5 of Juillerat et al, Chem Biol 10:313-317, 2003, BG-FL, 20 µM) and purified over a size exclusion column (Econopac 10 DG, Bio-Rad) and incubated for 7 days. […] The fluorescence of the supernatant is measured with a Victor2 fluorescence plate reader (Perkin Elmer, excitation/emission at 485/535 nm).

B1: Wild type hAGT: wild type human O^6-alkylguanine-DNA alkyltransferase (SEQ ID NO:1); GST-hAGT is its GST fusion (protein, listed as Homo sapiens)
chain: MDKDCEMKRTTLDSPLGKLELSGCEQGLHEIKLLGKGTSAADAVEVPAPAAVLGGPEPLMQCTAWLNAYFHQPEAIEEFPVPALHHPVFQQESFTRQVLWKLLKVVKFGEVISYQQLAALAGNPKAARAVGGAMRGNPVPILIPCHRVVCSSGAVGNYSGGLAVKEWLLAHEGHRLGKPGLGGSSGLAGAWLKGAGATSGSPPAGRN
[1]; CPTG and BG-Bt both at 5 μM, 30 minutes
  fraction of protein reacting with CPTG: 95%
[1]; simultaneous incubation with identical concentrations of CPTG and BG-Bt
  fraction of protein reacting with BG-Bt: about 5%
[2]; BG-Cy3 activity assay
  kobs: 116 M⁻¹ s⁻¹
[2]; divided by value for wild type hAGT, purified GST fusion proteins (p.)
  Relative reaction rate: 1
[3]
  loss of soluble fluorescent protein: about 60%
